Experimental data from patent publication US20140213513A1 (Sanofi, priority 2012, published 2014).
*1 amine or outer side, *2 acyl side, *3 side chain or, on linkers, in order; H or OH if unused. Where no end group is shown, it is not given here. Side-chain parts run from the residue outwards. [ ]: non-standard residue; d: D form. The star is where a group is joined. γGlu = O=C(O)[C@H](CCC(=O)[*:2])N[*:1]; Stearoyl = CCCCCCCCCCCCCCCCCC(=O)*; Palmitoyl = CCCCCCCCCCCCCCCC(=O)*; Aib = CC(C)(N)C(=O)O

T1: human GIP receptor (human, UniProt P48546 22-466)
T1 sequence (looked up): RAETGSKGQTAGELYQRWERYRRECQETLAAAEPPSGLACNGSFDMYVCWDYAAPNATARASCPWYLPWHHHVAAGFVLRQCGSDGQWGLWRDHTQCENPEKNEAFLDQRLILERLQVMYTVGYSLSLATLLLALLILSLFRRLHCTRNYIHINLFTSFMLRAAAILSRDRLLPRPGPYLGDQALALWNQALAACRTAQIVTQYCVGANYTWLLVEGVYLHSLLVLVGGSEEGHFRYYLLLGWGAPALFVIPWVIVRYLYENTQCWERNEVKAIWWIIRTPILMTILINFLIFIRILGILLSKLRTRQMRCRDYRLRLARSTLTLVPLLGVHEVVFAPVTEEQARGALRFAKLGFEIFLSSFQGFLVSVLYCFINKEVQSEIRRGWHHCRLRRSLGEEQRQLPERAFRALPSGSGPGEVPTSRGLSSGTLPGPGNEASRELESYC


Columns and labels:
Test in all cases: cell-based or functional assay
[1] = biological target: human GLP-1 receptor (human, UniProt P43220 24-463)
[2] = biological target: T1, human GIP receptor
[3] = biological target: human glucagon receptor (human, UniProt P47871 26-477)
human glucagon receptor, sequence (P47871 26-477): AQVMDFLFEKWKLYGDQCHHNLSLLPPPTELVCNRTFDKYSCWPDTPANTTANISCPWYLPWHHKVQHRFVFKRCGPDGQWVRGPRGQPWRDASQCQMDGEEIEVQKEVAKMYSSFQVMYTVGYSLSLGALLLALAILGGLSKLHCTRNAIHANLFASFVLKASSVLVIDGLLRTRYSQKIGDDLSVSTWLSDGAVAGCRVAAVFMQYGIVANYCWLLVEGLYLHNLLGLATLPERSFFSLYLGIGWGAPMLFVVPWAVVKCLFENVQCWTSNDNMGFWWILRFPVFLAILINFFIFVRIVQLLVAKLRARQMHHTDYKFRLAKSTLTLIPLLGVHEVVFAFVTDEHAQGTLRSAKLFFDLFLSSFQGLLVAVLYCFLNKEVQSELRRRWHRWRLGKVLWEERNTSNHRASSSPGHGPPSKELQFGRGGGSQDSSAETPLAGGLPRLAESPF

| Molecule | EC50 hGLP-1 R [1] [pM] | EC50 hGIP R [2] [pM] | EC50 hGLUC R [3] [pM] |
| --- | --- | --- | --- |
| Tyr(1)Ile(12)-GLP1 (peptide) | 5 | 3660 | – |
| Y[Aib]QGTFTSDLSKQK([γGlu-Palmitoyl])ESKAAQEFIEWLKAGGPSSGAPPPS-NH2 (N-terminus assumed; SMILES CCCCCCCCCCCCCCCC(=O)N[C@@H](CCC(=O)NCCCC[C@H](NC(=O)[C@H](CCC(N)=O)NC(=O)[C@H](CCCCN)NC(=O)[C@H](CO)NC(=O)[C@H](CC(C)C)NC(=O)[C@H](CC(=O)O)NC(=O)[C@H](CO)NC(=O)[C@@H](NC(=O)[C@H](Cc1ccccc1)NC(=O)[C@@H](NC(=O)CNC(=O)[C@H](CCC(N)=O)NC(=O)C(C)(C)NC(=O)[C@@H](N)Cc1ccc(O)cc1)[C@@H](C)O)[C@@H](C)O)C(=O)N[C@@H](CCC(=O)O)C(=O)N[C@@H](CO)C(=O)N[C@@H](CCCCN)C(=O)N[C@@H](C)C(=O)N[C@@H](C)C(=O)N[C@@H](CCC(N)=O)C(=O)N[C@@H](CCC(=O)O)C(=O)N[C@@H](Cc1ccccc1)C(=O)N[C@H](C(=O)N[C@@H](CCC(=O)O)C(=O)N[C@@H](Cc1c[nH]c2ccccc12)C(=O)N[C@@H](CC(C)C)C(=O)N[C@@H](CCCCN)C(=O)N[C@@H](C)C(=O)NCC(=O)NCC(=O)N1CCC[C@H]1C(=O)N[C@@H](CO)C(=O)N[C@@H](CO)C(=O)NCC(=O)N[C@@H](C)C(=O)N1CCC[C@H]1C(=O)N1CCC[C@H]1C(=O)N1CCC[C@H]1C(=O)N[C@@H](CO)C(N)=O)[C@@H](C)CC)C(=O)O) [exendin-4 peptide analogue SEQ ID NO: 40] | 5.5 | 53.6 | 22.6 |
| Y[Aib]QGTFTSDLSKQK([γGlu-Palmitoyl])ESKAAQDFIEWLKAGGPSSGAPPPS-NH2 (N-terminus assumed; SMILES CCCCCCCCCCCCCCCC(=O)N[C@@H](CCC(=O)NCCCC[C@H](NC(=O)[C@H](CCC(N)=O)NC(=O)[C@H](CCCCN)NC(=O)[C@H](CO)NC(=O)[C@H](CC(C)C)NC(=O)[C@H](CC(=O)O)NC(=O)[C@H](CO)NC(=O)[C@@H](NC(=O)[C@H](Cc1ccccc1)NC(=O)[C@@H](NC(=O)CNC(=O)[C@H](CCC(N)=O)NC(=O)C(C)(C)NC(=O)[C@@H](N)Cc1ccc(O)cc1)[C@@H](C)O)[C@@H](C)O)C(=O)N[C@@H](CCC(=O)O)C(=O)N[C@@H](CO)C(=O)N[C@@H](CCCCN)C(=O)N[C@@H](C)C(=O)N[C@@H](C)C(=O)N[C@@H](CCC(N)=O)C(=O)N[C@@H](CC(=O)O)C(=O)N[C@@H](Cc1ccccc1)C(=O)N[C@H](C(=O)N[C@@H](CCC(=O)O)C(=O)N[C@@H](Cc1c[nH]c2ccccc12)C(=O)N[C@@H](CC(C)C)C(=O)N[C@@H](CCCCN)C(=O)N[C@@H](C)C(=O)NCC(=O)NCC(=O)N1CCC[C@H]1C(=O)N[C@@H](CO)C(=O)N[C@@H](CO)C(=O)NCC(=O)N[C@@H](C)C(=O)N1CCC[C@H]1C(=O)N1CCC[C@H]1C(=O)N1CCC[C@H]1C(=O)N[C@@H](CO)C(N)=O)[C@@H](C)CC)C(=O)O) [exendin-4 peptide analogue SEQ ID NO: 39] | 4.5 | 38.5 | 19.2 |
| Y[Aib]QGTFTSDLSIQK([γGlu-Palmitoyl])EKRAALEFIEWLKNTGPSSGAPPPS-NH2 (N-terminus assumed; SMILES CCCCCCCCCCCCCCCC(=O)N[C@@H](CCC(=O)NCCCC[C@H](NC(=O)[C@H](CCC(N)=O)NC(=O)[C@@H](NC(=O)[C@H](CO)NC(=O)[C@H](CC(C)C)NC(=O)[C@H](CC(=O)O)NC(=O)[C@H](CO)NC(=O)[C@@H](NC(=O)[C@H](Cc1ccccc1)NC(=O)[C@@H](NC(=O)CNC(=O)[C@H](CCC(N)=O)NC(=O)C(C)(C)NC(=O)[C@@H](N)Cc1ccc(O)cc1)[C@@H](C)O)[C@@H](C)O)[C@@H](C)CC)C(=O)N[C@@H](CCC(=O)O)C(=O)N[C@@H](CCCCN)C(=O)N[C@@H](CCCNC(=N)N)C(=O)N[C@@H](C)C(=O)N[C@@H](C)C(=O)N[C@@H](CC(C)C)C(=O)N[C@@H](CCC(=O)O)C(=O)N[C@@H](Cc1ccccc1)C(=O)N[C@H](C(=O)N[C@@H](CCC(=O)O)C(=O)N[C@@H](Cc1c[nH]c2ccccc12)C(=O)N[C@@H](CC(C)C)C(=O)N[C@@H](CCCCN)C(=O)N[C@@H](CC(N)=O)C(=O)N[C@H](C(=O)NCC(=O)N1CCC[C@H]1C(=O)N[C@@H](CO)C(=O)N[C@@H](CO)C(=O)NCC(=O)N[C@@H](C)C(=O)N1CCC[C@H]1C(=O)N1CCC[C@H]1C(=O)N1CCC[C@H]1C(=O)N[C@@H](CO)C(N)=O)[C@@H](C)O)[C@@H](C)CC)C(=O)O) [exendin-4 peptide analogue SEQ ID NO: 33] | – | 88.2 | 109 |
| Y[Aib]QGTFTSDLSKQK([γGlu-Stearoyl])DSKAAQDFIEWLKAGGPSSGAPPPS-NH2 (N-terminus assumed; SMILES CCCCCCCCCCCCCCCCCC(=O)N[C@@H](CCC(=O)NCCCC[C@H](NC(=O)[C@H](CCC(N)=O)NC(=O)[C@H](CCCCN)NC(=O)[C@H](CO)NC(=O)[C@H](CC(C)C)NC(=O)[C@H](CC(=O)O)NC(=O)[C@H](CO)NC(=O)[C@@H](NC(=O)[C@H](Cc1ccccc1)NC(=O)[C@@H](NC(=O)CNC(=O)[C@H](CCC(N)=O)NC(=O)C(C)(C)NC(=O)[C@@H](N)Cc1ccc(O)cc1)[C@@H](C)O)[C@@H](C)O)C(=O)N[C@@H](CC(=O)O)C(=O)N[C@@H](CO)C(=O)N[C@@H](CCCCN)C(=O)N[C@@H](C)C(=O)N[C@@H](C)C(=O)N[C@@H](CCC(N)=O)C(=O)N[C@@H](CC(=O)O)C(=O)N[C@@H](Cc1ccccc1)C(=O)N[C@H](C(=O)N[C@@H](CCC(=O)O)C(=O)N[C@@H](Cc1c[nH]c2ccccc12)C(=O)N[C@@H](CC(C)C)C(=O)N[C@@H](CCCCN)C(=O)N[C@@H](C)C(=O)NCC(=O)NCC(=O)N1CCC[C@H]1C(=O)N[C@@H](CO)C(=O)N[C@@H](CO)C(=O)NCC(=O)N[C@@H](C)C(=O)N1CCC[C@H]1C(=O)N1CCC[C@H]1C(=O)N1CCC[C@H]1C(=O)N[C@@H](CO)C(N)=O)[C@@H](C)CC)C(=O)O) [exendin-4 peptide analogue SEQ ID NO: 41] | 24.1 | 186 | 26.5 |
| YAEGTFTSDLSKQKEEEAVRLFIEWLKAGGPSSGAPPPS (Aib at 2; Lys14 side-chain NH2 acylated with (S)-4-Carboxy-4-octadecanoylamino-butyryl- (yE-x70); C-terminal amide) [exendin-4 peptide analogue SEQ ID NO: 65] | – | 12 | 26800 |
| Y[Aib]EGTFTSDLSIQK([γGlu-Palmitoyl])EEQAAHEFIEWLKR[Aib]GPSSGAPPPS-NH2 (N-terminus assumed; SMILES CCCCCCCCCCCCCCCC(=O)N[C@@H](CCC(=O)NCCCC[C@H](NC(=O)[C@H](CCC(N)=O)NC(=O)[C@@H](NC(=O)[C@H](CO)NC(=O)[C@H](CC(C)C)NC(=O)[C@H](CC(=O)O)NC(=O)[C@H](CO)NC(=O)[C@@H](NC(=O)[C@H](Cc1ccccc1)NC(=O)[C@@H](NC(=O)CNC(=O)[C@H](CCC(=O)O)NC(=O)C(C)(C)NC(=O)[C@@H](N)Cc1ccc(O)cc1)[C@@H](C)O)[C@@H](C)O)[C@@H](C)CC)C(=O)N[C@@H](CCC(=O)O)C(=O)N[C@@H](CCC(=O)O)C(=O)N[C@@H](CCC(N)=O)C(=O)N[C@@H](C)C(=O)N[C@@H](C)C(=O)N[C@@H](Cc1c[nH]cn1)C(=O)N[C@@H](CCC(=O)O)C(=O)N[C@@H](Cc1ccccc1)C(=O)N[C@H](C(=O)N[C@@H](CCC(=O)O)C(=O)N[C@@H](Cc1c[nH]c2ccccc12)C(=O)N[C@@H](CC(C)C)C(=O)N[C@@H](CCCCN)C(=O)N[C@@H](CCCNC(=N)N)C(=O)NC(C)(C)C(=O)NCC(=O)N1CCC[C@H]1C(=O)N[C@@H](CO)C(=O)N[C@@H](CO)C(=O)NCC(=O)N[C@@H](C)C(=O)N1CCC[C@H]1C(=O)N1CCC[C@H]1C(=O)N1CCC[C@H]1C(=O)N[C@@H](CO)C(N)=O)[C@@H](C)CC)C(=O)O) [exendin-4 peptide analogue SEQ ID NO: 38] | 9 | 7.4 | 22500 |
| Y[Aib]QGTFTSDLSIQK([γGlu-Palmitoyl])EKLAA[Aib]EFIEWLKNTGPSSGAPPPS-NH2 (N-terminus assumed; SMILES CCCCCCCCCCCCCCCC(=O)N[C@@H](CCC(=O)NCCCC[C@H](NC(=O)[C@H](CCC(N)=O)NC(=O)[C@@H](NC(=O)[C@H](CO)NC(=O)[C@H](CC(C)C)NC(=O)[C@H](CC(=O)O)NC(=O)[C@H](CO)NC(=O)[C@@H](NC(=O)[C@H](Cc1ccccc1)NC(=O)[C@@H](NC(=O)CNC(=O)[C@H](CCC(N)=O)NC(=O)C(C)(C)NC(=O)[C@@H](N)Cc1ccc(O)cc1)[C@@H](C)O)[C@@H](C)O)[C@@H](C)CC)C(=O)N[C@@H](CCC(=O)O)C(=O)N[C@@H](CCCCN)C(=O)N[C@@H](CC(C)C)C(=O)N[C@@H](C)C(=O)N[C@@H](C)C(=O)NC(C)(C)C(=O)N[C@@H](CCC(=O)O)C(=O)N[C@@H](Cc1ccccc1)C(=O)N[C@H](C(=O)N[C@@H](CCC(=O)O)C(=O)N[C@@H](Cc1c[nH]c2ccccc12)C(=O)N[C@@H](CC(C)C)C(=O)N[C@@H](CCCCN)C(=O)N[C@@H](CC(N)=O)C(=O)N[C@H](C(=O)NCC(=O)N1CCC[C@H]1C(=O)N[C@@H](CO)C(=O)N[C@@H](CO)C(=O)NCC(=O)N[C@@H](C)C(=O)N1CCC[C@H]1C(=O)N1CCC[C@H]1C(=O)N1CCC[C@H]1C(=O)N[C@@H](CO)C(N)=O)[C@@H](C)O)[C@@H](C)CC)C(=O)O) [exendin-4 peptide analogue SEQ ID NO: 8] | 8.7 | 26 | 803 |
